Results from patent publication US20150246949A1, “Desmoglein 2 (DSG2) Binding Proteins and Uses Therefor” (UNIVERSITY OF WASHINGTON THROUGH ITS CENTER FOR …, priority 2012, published 2015).
“Also recorded” adds a separate entry of the source.

Key:
[1] = system: polarized colon cancer T84 cells; experiment: Transepithelial electrical resistance (TEER) permeability assay; format: cell-based; conditions: for Effect on TEER: 5 μg dimeric Ad3 fiber knob added 1 hour to apical chamber
Procedure: FIG. 5. Correlation of reduced DSG2 binding with the ability to open epithelial junctions. A) Transepithelial electrical resistance (TEER) measured on polarized colon cancer T84 cells. Cells were cultured in transwell chambers until the TEER was constant, i.e. tight junctions had formed. A total of 5 μg of dimeric Ad3 fiber knobs in PBS was then added for 1 hour to the apical chamber. TEER was measured at the indicated time points. N=6. For time points 1.5 and 4 hours the difference between JO-1 vs D261N and N186D was significant (p<0.01). The arrows indicate the addition and removal of Ad3 fiber knobs. B) Enhancement of irinotecan therapy. A total of 4×10^6 A549 cells were injected subcutaneously into CB17-SCID/beige mice. Once the tumor reached a volume of ˜100 mm^3 (day 15 after implantation), the mice were injected intravenously with 2 mg/kg JO-1, E299V, N186D, or PBS, followed by an intravenous injection of irinotecan (37.5 mg/kg) one hour later. The treatment was repeated on day 25. N=5. […] The difference between “irinotecan” vs “JO-1+irinotecan” was significant (p<0.01) from day 20 on.
FIG. 9. Analysis of dimeric Ad3 fiber knob mutants with increased affinity to DSG2. A) Competition of Ad3-GFP virus infection on HeLa cells with dimeric affinity-enhanced mutant Y250F and JO-1 (dimeric wt Ad3 fiber knob). The experimental setting is as described for FIG. 3C. left panel: percentage of GFP positive cells. Right panel: mean fluorescence intensity. N=3. The standard deviation was less than 10%. B) Competition of Ad3-GFP virus infection on HeLa cells by Ad3 knob mutants with enhanced DSG2 binding but without dimerization domain. 1.5×10^5 HeLa cells were seeded into 24 well plates. Cells were incubated with the Ad3 knob mutants at the increasing concentrations for one hour at room temperature. 100 pfu/cell of Ad3GFP virus were then added and GFP expression was analyzed 18 hours later. C) TEER on colon cancer T84 cells. The experimental setting was the same as for FIG. 5A. The TEER at 4 hours is shown. N=3.
A total of 5×10^5 T84 cells were seeded in 12 mm transwell inserts (PET membrane, with 0.4 μm pore size (Corning, N.Y.) and cultured for >14 days until transepithelial electrical resistance (TEER) was stable. Culture medium was changed every 2-3 days. The cells were exposed to DSG2 ligands (20 μg/ml) in adhesion medium (DMEM, 1% FBS, 2 mM MgCl2, 20 mM HEPES) for 15 min at room temperature and TEER was measured and calculated as described elsewhere (39).

[2] = Blood chemistry and blood cell counts after i.v. injection; format: in vivo, hDSG2 transgenic mice; conditions: for Blood chemistry / Blood cell counts: after i.v. injection; for Blood cell counts: N=3; for Time of nadir of lymphocyte and platelet counts: p.i.
Procedure: (§1) FIG. 11. Pharmacokinetics, toxicity, and immunogenicity of JO-4. A) Serum clearance of JO-1 and JO-4. hDSG2 transgenic mice with subcutaneous TC1-hDSG2 tumors (˜600 mm^3) were intravenously injected with JO-1 or JO-4 (2 mg/kg) and serum samples were analyzed for by ELISA. N=3. Note that the y-axis has a log scale. B) Lymphocyte and platelet counts in hDSG2/TC1-hDSG2 transgenic mice after JO-1 or JO-4 injection. N=3. C) Therapy studies in immunocompetent hDSG2 transgenic mice with TC1-hDSG2 tumors. When tumors reached a volume of ˜80 mm^3, JO-1 or JO-4 (2 mg/kg) or PBS was injected intravenously followed one hour later by PLD/Doxil (i.v. 1.5 mg/kg). Treatment was repeated as indicated by arrows. Tumors were then allowed to re-grow for about two weeks. From day 15 on serum anti-JO-1/J)-4 antibodies were detectable by ELISA. Two more treatment cycles were performed at day 28 and day 35. […] The difference between JO-1/PLD vs JO-4/PLD is significant from day 31 on. N=10.
Two of the affinity enhanced version of JO-1, Y293D and V250F were analyzed in in vivo assay. We called these mutants JO-2 and JO-4, respectively. The first study was performed in a xenograft model derived from A549 cells similar to the study described for FIG. 5B. […] Additional studies were performed in xenograft tumors derived from ovc316 cells (30, 32). Ovc316 cells are Her2/neu positive epithelial tumor cells derived from an ovarian cancer biopsy. These cells can undergo EMT and the reverse process, mesenchymal-to-epithelial-transition (MET), under specific conditions in vitro and in vivo. A subfraction of ovc316 cells that is positive for Nanog, CD133, and E-cadherin is enriched for cancer stem cells, i.e. self-renewing cells with pluripotent potential and tumor forming ability (30). Ovc316 cells therefore closely model the heterogeneity and plasticity seen in tumors in situ. […] Finally, we tested JO-4 in a model for triple-negative breast cancer (TNBC). TNBC is characterized by a lack or minimal expression of estrogen receptor (ER), progesterone receptor (PR) and the absence of Her2/neu overexpression. TNBC accounts for 15% of all breast cancers. Overall survival is poor compared with that in patients who have other phenotypes. A characteristic feature of TNBC is high levels of DSG2 and epithelial junctions. Promising clinical results in the treatment of TNBS have been achieved with nanoparticle, albumin-conjugated paclitaxel (nab-paclitaxel/Abraxane™) alone or in combination with the EGFR-targeting mAb cetuximab/Erbitux™ (38). […] Because of its therapeutic relevance, we further studied JO-4 in an adequate mouse tumor model. […] These mice were subcutaneously implanted with syngeneic TC1-hDSG tumors. When tumors reached a volume of ˜600 mm^3, JO-1 or JO-4 was intravenously injected for safety and efficacy studies. […] After one hour post-injection JO-1 and JO-4 concentration reached a plateau with ˜100 ng/ml. We also analyzed hematological parameters after i.v. JO-1 and JO-4 injection.

[3] = Serum clearance of JO-1 and JO-4 by ELISA; format: in vivo, hDSG2 transgenic mice; conditions: 2 mg/kg i.v.; for Decline of serum concentration within an hour after injection: TC1-hDSG2 tumors ~600 mm^3, N=3; for Serum concentration plateau: after one hour post-injection
Procedure: as §1
Two of the affinity enhanced version of JO-1, Y293D and V250F were analyzed in in vivo assay. We called these mutants JO-2 and JO-4, respectively. The first study was performed in a xenograft model derived from A549 cells similar to the study described for FIG. 5B. […] Additional studies were performed in xenograft tumors derived from ovc316 cells (30, 32). Ovc316 cells are Her2/neu positive epithelial tumor cells derived from an ovarian cancer biopsy. These cells can undergo EMT and the reverse process, mesenchymal-to-epithelial-transition (MET), under specific conditions in vitro and in vivo. A subfraction of ovc316 cells that is positive for Nanog, CD133, and E-cadherin is enriched for cancer stem cells, i.e. self-renewing cells with pluripotent potential and tumor forming ability (30). Ovc316 cells therefore closely model the heterogeneity and plasticity seen in tumors in situ. […] Finally, we tested JO-4 in a model for triple-negative breast cancer (TNBC). TNBC is characterized by a lack or minimal expression of estrogen receptor (ER), progesterone receptor (PR) and the absence of Her2/neu overexpression. TNBC accounts for 15% of all breast cancers. Overall survival is poor compared with that in patients who have other phenotypes. A characteristic feature of TNBC is high levels of DSG2 and epithelial junctions. Promising clinical results in the treatment of TNBS have been achieved with nanoparticle, albumin-conjugated paclitaxel (nab-paclitaxel/Abraxane™) alone or in combination with the EGFR-targeting mAb cetuximab/Erbitux™ (38). […] Because of its therapeutic relevance, we further studied JO-4 in an adequate mouse tumor model. […] These mice were subcutaneously implanted with syngeneic TC1-hDSG tumors. […] We also analyzed hematological parameters after i.v. JO-1 and JO-4 injection.

Row | Molecule | Effect on TEER [1] | Blood chemistry [2] | Blood cell counts [2] | Lymphocyte and platelet counts compared with JO-1 ([2]; nadir at 24 hours p.i. and recovery) | Time of nadir of lymphocyte and platelet counts [2] | TEER compared to JO-1 ([1]; dimeric affinity-enhanced mutants, TEER at 4 hours, N=3) | Decline of serum concentration within an hour after injection [3] | Serum concentration plateau [3]
1 | D261N (protein) MKVSALKEKVSALKEKVSALKEKVSALKEKVSALKEGSGGGSGGGSGGGSNSIALKNNTLWTGPKPEANCIIEYGKQNPDSKLTLILVKNGGIVNGYVTLMGASDYVNTLFKNKNVSINVELYFDATGHILPDSSSLKTDLELKYKQTADFSARGFMPSTTAYPFVLPNAGTHNENYIFGQCYYKASNGALFPLEVTVMLNKRLPDSRTSYVMTFLWSLNAGLAPETTQATLITSPFTFSYIREDD | no effect on the TEER | – | – | – | – | – | – | –
2 | JO-4 (protein) MKVSALKEKVSALKEKVSALKEKVSALKEKVSALKEGSGGGSGGGSGGGSNSIALKNNTLWTGPKPEANCIIEYGKQNPDSKLTLILVKNGGIVNGYVTLMGASDYVNTLFKNKNVSINVELYFDATGHILPDSSSLKTDLELKYKQTADFSARGFMPSTTAYPFVLPNAGTHNENFIFGQCYYKASDGALFPLEVTVMLNKRLPDSRTSYVMTFLWSLNAGLAPETTQATLITSPFTFSYIREDD | – | did not show abnormal changes | normal except for lymphocyte and platelet number, which decreased early after injection | significantly lower numbers; also recorded: returned to normal levels faster | 24 h | significantly higher | declined more than one order of magnitude; also recorded: significantly greater | ~100 ng/mL
3 | JO-1: recombinant protein with the Ad3 fiber knob and a domain for self-dimerization of trimeric knobs (SEQ ID NO:27) (protein) MKVSALKEKVSALKEKVSALKEKVSALKEKVSALKEGSGGGSGGGSGGGSNSIALKNNTLWTGPKPEANCIIEYGKQNPDSKLTLILVKNGGIVNGYVTLMGASDYVNTLFKNKNVSINVELYFDATGHILPDSSSLKTDLELKYKQTADFSARGFMPSTTAYPFVLPNAGTHNENYIFGQCYYKASDGALFPLEVTVMLNKRLPDSRTSYVMTFLWSLNAGLAPETTQATLITSPFTFSYIREDD | rapid decrease in the TEER | did not show abnormal changes | normal except for lymphocyte and platelet number, which decreased early after injection | – | 24 h | – | declined more than one order of magnitude | ~100 ng/mL
